± gives the uncertainty stated by the source.
Assay: self-splicing fitness, log relative to wild type (ln ratio); higher = more splicing; Tetrahymena group I intron in knt gene, E. coli kanamycin selection, DiMSum; sequences stand for … in CUCUCU…GGAGGGAAAAGUUAUCAGGCAUGCACCUGGUAGCUAGUCUUUAAACCAAUAGAUUGCAUCGGUUUAAAAGGCAAGACCGUCAAAUUGCGGGAAAGGGGUCAACAGCCGUUCAGUACCAAGUCUCAGGGGAAACUUUGAGAUGGCCUUGCAAAGGGUAUGGUAAUAAGCUGACGGACAUGGUCCUAACCACGCAGCCAAGUCCUAAGUCAACAGAUCUUCUGUUGAUAUGGAUGCAGUUCACAGACUAAAUGUCGGUCGGGGAAGAUGUAUUCUUCUCAUAAGAUAUAGUCGGACCUCUCCUUAAUGGGAGCUAGCGGAUGAAGUGAUGCAACACUGGAGCCGCUGGGAACUAAUUUGUAUGCGAAAGUAUAUUGAUUAGUUUUGGAGUACUCGUGGUCG
Outline: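 DiMSum derived fitness as the error-weighted combination of fold changes across replicates, kanamycin versus no kanamycin, normalised to wild type. E. coli BL21(DE3) held the library, which randomised all eight P1ex-region intron nucleotides within the knt kanamycin-resistance gene on pET-22b(+). Six replicate transformations grew overnight at 37°C or 30°C on LB agar with or without 25 μg/mL kanamycin, also containing 100 μg/mL carbenicillin, 50 μM IPTG and 0.2% rhamnose, and pooled colonies were amplicon-sequenced on an Illumina HiSeq 2500.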

Sequence	self-splicing fitness (ln) (30 °C)	self-splicing fitness (ln) (37 °C)
UAUUAGCAAUAUUACGUGUU	-3.04 ± 0.29	-2.86 ± 0.32
GUGUAGCAAUAUUACGGCCU	-0.169 ± 0.073	0.685 ± 0.098
CCGGAGCAAUAUUACGAUCG	-0.502 ± 0.12	0.299 ± 0.16
GCCAAGCAAUAUUACGCGAC	-2.35 ± 0.11	-0.858 ± 0.1
CACAAGCAAUAUUACGGGCC	-3.78 ± 0.33	-2.01 ± 0.29
AUGCAGCAAUAUUACGACCG	-1.66 ± 0.29	-1.07 ± 0.3
CGGGAGCAAUAUUACGCUGU	-2.76 ± 0.33	-2.43 ± 0.34
AUCGAGCAAUAUUACGAGAC	-1.99 ± 0.32	
GAAUAGCAAUAUUACGGCAA	-0.403 ± 0.14	-0.118 ± 0.14
CCACAGCAAUAUUACGUUCA	-3.27 ± 0.16	-2.5 ± 0.19
CAAUAGCAAUAUUACGGGGU	-4.27 ± 0.39	-2.48 ± 0.23
ACAGAGCAAUAUUACGGGAU	-3.52 ± 0.11	-3.03 ± 0.15
AAGAAGCAAUAUUACGUAGU	-2.52 ± 0.16	-1.14 ± 0.15
ACCUAGCAAUAUUACGCCCU	-0.142 ± 0.12	-0.462 ± 0.14
CUCUAGCAAUAUUACGAAAA		-1.12 ± 0.2
CACUAGCAAUAUUACGAGCU	-3.44 ± 0.18	-2.75 ± 0.17
AUACAGCAAUAUUACGUUUC	-3.38 ± 0.19	-1.49 ± 0.2
AGUUAGCAAUAUUACGUCUC	-3.73 ± 0.37	-2.44 ± 0.36
GCUCAGCAAUAUUACGCAAG	-2.83 ± 0.42	-1.69 ± 0.23
CAUUAGCAAUAUUACGAGUA	-1.59 ± 0.23	-1.84 ± 0.27
AAGAAGCAAUAUUACGUGUC	-3.38 ± 0.15	-2.09 ± 0.17
AAAUAGCAAUAUUACGAUCG	-0.864 ± 0.091	-0.18 ± 0.11
UAAAAGCAAUAUUACGUACA	-1.05 ± 0.1	-0.00957 ± 0.14
AUGUAGCAAUAUUACGAGCU	-0.582 ± 0.14	-0.987 ± 0.2
CGGAAGCAAUAUUACGGUGG	-0.759 ± 0.099	-0.586 ± 0.1

Sequence	self-splicing fitness (ln) (30 °C)	self-splicing fitness (ln) (37 °C)
GGCCAGCAAUAUUACGUAUA	-3.92 ± 0.26	-2.23 ± 0.2
GGGUAGCAAUAUUACGAUAG	-2.32 ± 0.37	
AAUAAGCAAUAUUACGAUGC	-2.4 ± 0.13	-1.45 ± 0.15
UAUAAGCAAUAUUACGAUGG	-1.62 ± 0.13	-1.48 ± 0.2
GCCAAGCAAUAUUACGCAGG	-2.98 ± 0.17	-2.05 ± 0.24
CGUAAGCAAUAUUACGCUUC		-2.52 ± 0.45
GCGCAGCAAUAUUACGGUCA	-1.41 ± 0.12	-1.49 ± 0.099
AAGUAGCAAUAUUACGCCAA	-2.53 ± 0.24	-1.55 ± 0.23
CCUUAGCAAUAUUACGUCAC	-3.46 ± 0.26	-2.21 ± 0.29
CGCCAGCAAUAUUACGCAAG	-1.03 ± 0.077	-0.526 ± 0.091
AUUUAGCAAUAUUACGUGCC	-0.606 ± 0.15	0.118 ± 0.14
AUUAAGCAAUAUUACGCUAG	-1.96 ± 0.16	-0.736 ± 0.18
CCCCAGCAAUAUUACGGUCC	-3.86 ± 0.18	-2.9 ± 0.27
UGCAAGCAAUAUUACGCAAC	-1.9 ± 0.26	-2.11 ± 0.28
CGAGAGCAAUAUUACGGGUC		-0.826 ± 0.23
UUCGAGCAAUAUUACGAUUA	-1.39 ± 0.26	-0.875 ± 0.25
UUCAAGCAAUAUUACGUUCU	-2.22 ± 0.14	-2.14 ± 0.17
UAGAAGCAAUAUUACGGCUG	-0.338 ± 0.11	0.218 ± 0.15
CAUUAGCAAUAUUACGAACA	-3.7 ± 0.42	-0.317 ± 0.2
UACCAGCAAUAUUACGAUUU	-1.25 ± 0.076	-0.288 ± 0.075
CUAAAGCAAUAUUACGUUAU	-4.11 ± 0.21	-3.34 ± 0.26
UCAUAGCAAUAUUACGCCCU	-2.75 ± 0.36	
GCGGAGCAAUAUUACGGACA	-1.62 ± 0.21	-2.26 ± 0.31
UUGCAGCAAUAUUACGAGGG	-2.78 ± 0.15	-0.707 ± 0.15
GACCAGCAAUAUUACGUACU	-0.709 ± 0.069	0.123 ± 0.082

Sequence	self-splicing fitness (ln) (30 °C)	self-splicing fitness (ln) (37 °C)
ACCGAGCAAUAUUACGCUGA	-3.32 ± 0.24	-1.24 ± 0.16
GCAAAGCAAUAUUACGAUUG	-3.55 ± 0.21	-1.28 ± 0.15
CAGUAGCAAUAUUACGACGA	-1.39 ± 0.13	-0.446 ± 0.13
GUCCAGCAAUAUUACGCACA	-1 ± 0.16	0.0214 ± 0.12
CUGCAGCAAUAUUACGCCAG	-2.56 ± 0.42	-1.07 ± 0.21
ACGUAGCAAUAUUACGAAUC	-4.01 ± 0.3	-2.74 ± 0.3
AUACAGCAAUAUUACGCCCC	-1.47 ± 0.25	0.0702 ± 0.23
ACCAAGCAAUAUUACGACAU	-1.04 ± 0.011	-0.296 ± 0.032
UUCGAGCAAUAUUACGAGAA		-0.969 ± 0.32
CCUCAGCAAUAUUACGGUAC	-4.96 ± 0.32	-2.26 ± 0.26
ACCCAGCAAUAUUACGAAAC	-2.77 ± 0.12	-1.04 ± 0.15
GCAUAGCAAUAUUACGAAUC	-2.12 ± 0.33	-1.55 ± 0.32
CUGCAGCAAUAUUACGGAAU	-5.11 ± 0.45	-2.74 ± 0.32
CUAUAGCAAUAUUACGUAGC	-4.05 ± 0.31	-3.11 ± 0.43
UAAUAGCAAUAUUACGUCCA	-0.695 ± 0.1	-0.122 ± 0.11
AGCUAGCAAUAUUACGAGUG	-0.877 ± 0.066	-0.529 ± 0.084
CCUAAGCAAUAUUACGUAGA	-1.33 ± 0.08	-0.523 ± 0.1
AACCAGCAAUAUUACGUUAC	-2.93 ± 0.14	-2.52 ± 0.17
CAACAGCAAUAUUACGCACC	-3.36 ± 0.34	-0.879 ± 0.3
UGAAAGCAAUAUUACGUCUU	-1.69 ± 0.074	-0.659 ± 0.073
AAACAGCAAUAUUACGAGAA		-1.95 ± 0.17
GUCCAGCAAUAUUACGCCUC	-0.866 ± 0.12	0.705 ± 0.15
GUUCAGCAAUAUUACGCUAC	-3.75 ± 0.29	-2.67 ± 0.26
GCGCAGCAAUAUUACGCCAU	-3.8 ± 0.38	-1.84 ± 0.3
AUAGAGCAAUAUUACGGCGU	0.102 ± 0.079	0.527 ± 0.12

Sequence	self-splicing fitness (ln) (30 °C)	self-splicing fitness (ln) (37 °C)
AAAAAGCAAUAUUACGCUCC	-1.14 ± 0.13	-0.319 ± 0.17
GGCAAGCAAUAUUACGCCGU	-2.44 ± 0.34	-0.00259 ± 0.29
UGUGAGCAAUAUUACGAAGC	-2.81 ± 0.34	-2.08 ± 0.47
GAGAAGCAAUAUUACGGGAC	-2.56 ± 0.13	-1.37 ± 0.12
UGAGAGCAAUAUUACGAGGA	-3.49 ± 0.34	-2.83 ± 0.4
GUUAAGCAAUAUUACGUAUA	-1.79 ± 0.14	-1.54 ± 0.15
CAAGAGCAAUAUUACGAUUA	-1.92 ± 0.19	-0.907 ± 0.21
CCCGAGCAAUAUUACGCUGU	-4.16 ± 0.31	-2.62 ± 0.27
AUUCAGCAAUAUUACGGUCU	-0.633 ± 0.073	0.126 ± 0.093
AAGAAGCAAUAUUACGUAUC	-2.31 ± 0.16	-0.892 ± 0.18
GACCAGCAAUAUUACGUGCG	-0.787 ± 0.082	-0.644 ± 0.097
AUUCAGCAAUAUUACGAGUG	-1.37 ± 0.062	-1.02 ± 0.082
UCCGAGCAAUAUUACGAACU		-2.3 ± 0.32
UUACAGCAAUAUUACGAUAG	-0.427 ± 0.056	0.204 ± 0.07
CGGGAGCAAUAUUACGGCCU	-3.25 ± 0.31	-2.88 ± 0.44
GUGGAGCAAUAUUACGUCCU	-1.24 ± 0.14	-0.219 ± 0.14
GAUGAGCAAUAUUACGGGUG	-2.68 ± 0.2	-3.32 ± 0.28
UCUAAGCAAUAUUACGUGUU	-3.44 ± 0.14	-2.81 ± 0.13
ACGCAGCAAUAUUACGUCGC	-1.16 ± 0.12	-2.45 ± 0.22
CGUUAGCAAUAUUACGUCUC		-1.86 ± 0.35
AGUAAGCAAUAUUACGGGUA	-2.7 ± 0.15	-1.56 ± 0.13
GUGCAGCAAUAUUACGGGUG	-3.36 ± 0.12	-1.87 ± 0.12
CUUCAGCAAUAUUACGCUUA	-3.34 ± 0.2	-2.4 ± 0.17
